# Target: T1, DENR (in DENR-MCTS1 complex, coexpressed);MCTS1 (in DENR-MCTS1 complex, coexpressed) (human;human) (UniProt O43583+Q9ULC4)
# T1 sequence 1: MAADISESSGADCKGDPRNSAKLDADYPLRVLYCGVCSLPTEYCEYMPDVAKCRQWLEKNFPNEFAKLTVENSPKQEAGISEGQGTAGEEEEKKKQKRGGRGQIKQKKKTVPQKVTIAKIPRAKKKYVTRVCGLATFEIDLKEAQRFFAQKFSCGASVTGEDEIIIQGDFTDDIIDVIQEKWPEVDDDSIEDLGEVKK
# T1 sequence 2: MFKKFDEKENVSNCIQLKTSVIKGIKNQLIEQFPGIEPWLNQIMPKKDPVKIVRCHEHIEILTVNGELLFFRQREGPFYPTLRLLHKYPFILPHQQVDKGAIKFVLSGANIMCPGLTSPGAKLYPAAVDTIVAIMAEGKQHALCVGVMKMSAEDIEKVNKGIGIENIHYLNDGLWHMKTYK
# Assay: EMSA
# Details: Scatchard, 5 replicates; general value, per-tRNA Kd only in S3E' Fig; 50 mM Tris pH 7.5, 150 mM NaCl, 15 mM imidazole (protein eluted in 300 mM imidazole, 2 mM DTT added), protein 0.25-16 uM, RNA 1 uM (3 uM yeast tRNA mix), 30 min
substance,measurement,value
"tRNA, species not specified in text",Kd,1.5 µM

# — publication PMC6013234
